Assay results: publication doi:10.1101/2024.07.27.605439

How the values were obtained:
[1] = biological target: Gαi1-H213Q single mutant (human) (UniProt P63096)
[2] = biological target: Gαi1-V185F single mutant (human) (UniProt P63096)
[3] = biological target: Gαi1-V185F/H213Q double mutant (human) (UniProt P63096)
[4] = biological target: Gαs-D229S single mutant (human) (UniProt P63092)
[5] = biological target: Gαs-F208V/D229S/Q236H triple mutant (human) (UniProt P63092)

RGS domain of human RGS16 (residue 86–205) (domain or fragment)
EC50 of RGS16 GAP activity (dose response) towards Gαi1-H213Q [1]: 7 nM | EC50 of RGS16 GAP activity (dose response) towards Gαi1-V185F [2]: 4 nM | EC50 of RGS16 GAP activity (dose response) towards Gαi1-V185F/H213Q [3]: 45 nM | EC50 of RGS16 GAP activity (dose response) towards Gαs-D229S [4]: 800 nM | EC50 of RGS16 GAP activity (dose response) towards Gαs-F208V/D229S/Q236H [5]: 9 nM
